Assay: label from the status in PepcDB records
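Further: failed if final PepcDB status was selected cloned or expressed and not failed if soluble or beyond.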

MTLDNRAFLKQSSKKLLFRFAVPAIFSLLVNELYNMVDTVFAGRYIGENAIGAMTIAFPIQKILIAMGLLIATGASTYAARVIGEKNYKELKKIVINSCALTIVSIISISFIIFQFKSSILYSLGASDNTYPMAVQYISIILFGSIFMCLASVMSYIMVSLGKTKTLLYTNIVGVLLNIILNYVLVIQLHMGIRGSGIATVLSQLAAFVVALVQFAYMNKKQNFKFFENISTNIISGDIIREIVLVGFSTFIIEIADAVVSAVLNNVLYAGGGDSAIIMLGVITKVYMFMFITVIGISSGMQPIVGYNFGAGNYKKAKDILKFSLKTVIIISAFVWVGFIIWAQPLIGFFLKDAQLVSKTVSAFRIVISMLPLLGIYYVAIYYYQAIGEARISFILSIYRELIMFIPMAVILFKIVGINGVFIAYPLTDIIVILTSVYFIRRAFKEQFAEESIPKRVGARA
protein production: failed

MNDHTAAIAAHFDQLAPNLDRWRRRNRTYYRDLEKLHRFWIPTGSRVLQVGSGLGDLLATVEPSFGIGIDVSPQAVAIAQQRHPQLQFHCLAAEELTPEAIGNPEPFDAIILTGVLSYLTDIQVVLEQLQAFCHPRTRLILGFHNFLWQPLLTAAEKVGQRSPQPPESWLGMQDVLNLLTLTGYEPIKQGLEHHHHHH
protein production: not failed

MSDIQVRHVEADKQFVIAVDGEDAGFAGYAERDGHRNFNHTVIDPRFRGQGLSQPLIQQALEATHADGLGVIATCSAVVGFVQKNPEFRDYLA
protein production: failed

MRKRYVMTEQVQSGPRLDWLLDGLVDRIPEIRCAIVLSGDGLLIGKSKNLRRDDAEHLSAVGSGMHSLARGAARHFHGGEVQQTVIQMDRAFLFVTAAGRGARLAAIASEQVDVGMMAFEMGTLVKQVGQYLSAAPRVETPSAGHIQDA
protein production: failed

MAAKPGIPKGTRDFSPVEMAKRNYIFNTIRDVFHLFGYQQIETPSMENLSTLMGKYGDEGDKLLFKIQNSGDYFNGITDEELLSRNAVKLASKFCEKGLRYDLTVPFARYVVMHRDEISFPFKRYQIQPVWRADRPQKGRYREFYQCDADVVGSNSLLNEVELVQMIDRVFGKFGVRVSIKINNRKILTGIAEIIGEADKIVDITVAIDKLDKIGLENVNAELASKGIPQEAIDKLQPIILLSGSNEEKLETLKTVLATSEAGLKGVEESEFILKTVSALGVKSEVELDLTLARGLNYYTGAIFEVKALDVQIGSISGGGRYDNLTGVFGMDGMSGVGISFGADRIFDVLNQLDLYPKE
protein production: not failed

GQGVSRSGALDLGALRSANRTVGNPSDMACVESVLGGLSFSCHGSAVIAITGAHTPVTITSASGLQWQASNYQPIELETGDRVSLGSPKAGLRSYLAIRGGFDVTPVLGSLSTDTLAQLGPEALATGDRLGFTAPVNGTSVSLNEAPAFELPTTANIVTLDVVMGPRTDWFTENAIQRLSSQLWRVTPQSNRVGIRLAGDTPLERSNHQELPSEGTSVGAIQVPASGQPVLFLADHPLTGGYPVIASVASHHLDLAGQIPVNAQIRFNPLGAFEEMQPSTEASFSTADAKNNS
protein production: failed

SLTSKNQFYKPGMLVPVFSAAGLLKNGRYQFLLQQIETLSLLPTEQYAQLYEALVYRFVEFVQVLPIRLDEPLCSLMNEGLLRGVNSLNHYIQNHPEATPLERYALFSAGLLLEVAHAVVNQKIFITDEEGNFIKQWNPFSGPLIDDVETKHYKIMPLSSYYQRNIPSITPILVRQLLPDEGFLWLTSDMRVFSDWMQALRDDEGEGGGRFEHVLQLFKHKNIDGLFNTLPALPVNLQDSPATAHADAFLNWLKEALATNQIKVNTSDAGVHVIPEGVFLEKTGIFKQYIDLHVNVPVNLFTVYQQFGNLFGLTKLSGIDYRFEQLFSEYPDALKRKSKMGFAGLIGIRRASPTREGVLIADPNLIFTRGEIPSATSYLKLSSAQKSQNIPMT
protein production: not failed

MDIKKIAQDDKSLGIDESNKDLFQDGILNIALFGVDSREHDNVGRSDSIIIATIDTKHDKIKLTSLMRDSYVEVDGHGKTKLTHAYAYGGPTLALKTINENFGLDIKDYVTVNFDNLAEIIDDLGGVPINIKPYEVKEVNNYAKNVAEIAGREYTPVSEGEQVLNGAQAVGYSRIRYVGDGDYERTERQRNVLDAIIKKLSALKPSEYPETIKKLLPYVETNLTPSKILSIATSVASTGIPPVENMRFPLDGYCKGEMIDGVWYLTFDEAKTKEQIQDYIYKDVNPKLEHHHHHH
protein production: failed

MRMILMFDMPTETAEERKAYRKFRKFLLSEGFIMHQFSVYSKLLLNNTANNAMIGRLKVNNPKKGNITLLTVTEKQFARMVYLHGERNTSVANSDSRLVFLGDSYDQDLEHHHHHH
protein production: failed

MGHRHQFGHGRRGGALMERALIIGASGWGREVLEQMRGDAGHGKDWLIGGFLDSRTNILDSYGVDTPIIGDPMNYLPQPDDVFVCAMGNPYDRHRYALPILQKGGRFIPICTDVRLGRRVHFGQGCFFGLMVHSGPDVRIGDFVTIHAQSMLGHDVRIGDYVHVGAMAFMGGGVQLGDFVTVHPRATLMPGVKVGDGAVIGAGAVVLKDVPAGATVFGNPAKIVFNKNIPTD
protein production: failed

MTEIATIEKPAQHGATTRLIDIVFPGDTNHHGTLFGGTGLALMDRVAFIAATRFGRTPFVTASCERIDFRQPARIGHIVEFTARPVKAGRRSLTVEVEMVAETIIGRQQHTCTRGIFHMVAIPEGEDAASYVLPELLTEETPDPSDAVTMVEIVFPDQANSAGRMFGGEAIAYMTKAAFVAASRYCGKLVVLASSERIDFARAIEIGEIVEAQAHVERVGRSSMSIQTKLWSENLLTGERHITATGHFTMVAVDKDHRPATIRDPAEAFSLEKGGA
protein production: not failed

MEIKGESMQKSKFRRICVFCGSSQGKKSSYQDAAVDLGNELVSRNIDLVYGGGSIGLMGLVSQAVHDGGRHLTGETVGEVRAVADMHQRKAEMAKHSDAFIALPGGYGTLEELLEVITWAQLGIHDKPVGLLNVDGYYNSLLSFIDKAVEEGFISPTAREIIVSAPTAKELVKKLEVN
protein production: not failed

MTLTALNAISPIDGRYVNKTRALSPYFSEFALTYYRLMVEIKWFESLAANDTIPEVPALDNKARKFLSDLISNFNESEAEKIKEFEKQTNHDVKAVEYYLQDKFQENEQLKSCVAFIHFACTSEDINNLAYALMIKQAIAQVIQPTIAEIMGSITLLGKQHADVAMLSRTHGQPATPTTMGKELVNFVARLKRPQQQLAEVLIPAKFNGAVGNYNAHVAAYPEVDWRKHCANFVTSLGLSFNAYTTQIEPHDGIAEVSQIMVRINNILLDYTQDIWSYISLGYFKQKTIAEEVGSSTMPHKVNPIDFENAEGNLGLSNALFIHFANKLTQSRMQRDLSDSTVLRNLGVAFSYSLIAYHSVAKGNDKLQINKSALQKDLSENWEVLAEAIQTVMRRYNEPNAYEQLKELTRGQMIDAENLKKFIKTLSIPEEAKAELMKLTPETYTGLATQLVKAFS
protein production: not failed

MDLGKPMKSVLVVALLVIFQVCLCQDEVTDDYIGDNTTVDYTLFESLCSKKDVRNFKAWFLPIMYSIICFVGLLGNGLVVLTYIYFKRLKTMTDTYLLNLAVADILFLLTLPFWAYSAAKSWVFGVHFCKLIFAIYKMSFFSGMLLLLCISIDRYVAIVQAVSAHRHRARVLLISKLSCVGIWILATVLSIPELLYSDLQRSSSEQAMRCSLITEHVEAFITIQVAQMVIGFLVPLLAMSFCYLVIIRTLLQARNFERNKAIKVIIAVVVVFIVFQLPYNGVVLAQTVANFNITSSTCELSKQLNIAYDVTYSLACVRCCVNPFLYAFIGVKFRNDLFKLFKDLGCLSQEQLRQWSSCRHIRRSSMSVEAETTTTFSP
protein production: failed

MMIMLSKRPVAMRIALRPLALAASLILSTPFALNATTFGTDLLEGQVLDGIGTGAGNLGTVADIQNTLSNMLRDEAAIGTLASVLPQALQRLPDDRQLRLLQAVVWAATRRDDDARAQMAQIGQEPPNVWRHVAEGLIARNAGDLARAAASLDEARALDPDNAYVHNTAGSIAFAAGDLEAAQEHFAQAVKSAPGWPRLLRQPCRHDDRTRQSARGPDHSGRKPPSPSRLLRHPPDGGRGASVARAVGCCRSRAAHLP
protein production: failed

MIKAYFGAETFTLNKDFAYILVIGTTDVSLIPGLTIAGATPELTHFTPAADAEYVILGKCKSINTIPVSPTGIPTPALLTRASLSFTKSLKIVVNAGSRITPKIPYIDLQGEPGKDIRKQALSIEKVNIIIENGIKLGEELSNEYELIMIGESIPAGTTTAMATLLALGYDAMDKVSSASPDNPKELKRKVVEEALRNLPTDPLQRLAKVSDPVLLGVAGISLGFRGKILLAGGTQMTAAAAIVNEFDKSKLKDIIIGTTKWIVEDKSADMLSLAKQVGVKVLASMLDLSISIHEGIRTYEKGYVKEGVGAGGSTIMAFIRGVSNSTLVRKIDELYSELVGSNNLNT
protein production: failed

SERRLGVRAWVKENRGSFQPPVCNKLMHQEQLKVMFIGGPNTRKDYHIEEGEEVFYQLEGDMVLRVLEQGKHRDVVIRQGEIFLLPARVPHSPQRFANTVGLVVERRRLETELDGLRYYVGDTMDVLFEKWFYCKDLGTQLAPIIQEFFSSEQYRTGKPIPDQLLKEPPFPLSTRSIMEPMSLDAWLDSHHRELQAGTPLSLFGDTYETQVIAYGQGSSEGLRQNVDVWLWQLEGSSVVTMGGRRLSLAPDDSLLVLAGTSYAWERTQGSVALSVTQDPACKKPLG
protein production: not failed

MSDHVCQEGCRHHSHGEDSPEIQQEFQEGRRDFMRDFAVGGVLASAASLGISSSAFGQTMPKTGLTSGHATHYYIPASDKTVSWGFFSKSLKPVVELESGDFATIETLTHHSNDDASLMVKGDPGAESVFYWDSKRKNVDRRGMGPMDHKLGAGGGMGVHILTGPVAIKGAEPGDVLEVRIVDVALRPSANPEFKGKTFGSNVAANWGFHYNELIEEPKKREVVTIYELDATGERNWARAFYNYRWTPQKDPFGVVHPIVDYPGVPVDHSTISKNYNVLKNIRVPVRPHFGTMGLAPKEADLVNSVPPSHFGGNIDNWRIGKGATMYYPVSVAGGLFSVGDPHASQGDSEMCGTAIECSLTGTFQFILHKKADLPGTPLADLQYPLLETQDEWVLHGFSYANYLAELGPDAQNSIFSKSSLDLALKDAFRKMRHFLMQTQNLTEDEAVSLMSIGVDFGITQVVDGNWGVHAVVKKGIFPGRDV
protein production: not failed

MQITIKVLKGKDCTIEVAPTSTILEVKHQIEAELQISATNQKLLLLGRPLNNEQTIASYPNIKEGTKLNLVVIKPCLRDSILRGFRKHYSEPLAERMTNEFMADFERKINEQSLDDLERLADSIVNRAAT
protein production: failed

MDRWNMHKPMLCDSLPTASRTAAAILNLAQREDVTAEALAQLIQTDPALTGRILRFANAPAQGTRRPVASVIDAIDLVGLPAVRQFALSLSLIDAHREGRCEAFDYAAYWQKSLARAVALQSITAQASTVAPKEAFTLGLLADVGRLALATAWPEEYSECLRKADGEALIALERERFATDHDELTRMLLTDWGFPQVFIDALQLSQQDEIRDEGRTGRFARQLALAQHIADHRLAEEPRRAALSPLLRAEARRCGLGDEDLARLLADPPADWLDWTRTIGLEHHHHHH
protein production: not failed

MRRKERRESMKKHRQLLALFICLVMSVSLLTGYSETKAATEEPTQSAEQDATQETAETREITDMAGRKVTVPTAENIESVFSAGPVAAIFLYMVVPDKLLGWNYELNDVEKSIILDKYQDLPNFGMGDAVNYEAVIAANPTIAINSGKINDAMVSDCDALSESLGIPVVAVDNELNNSAEAFRFMGELLGVEDHAEELAQYAEQVFTDINVLSDIPEEKKVSVYFGNGEDSLETAPRGSQHAQILDAINAVNVADLELGDGSRVQISAEQLLAWDPDVIVVNGEPKADKSGSSAAEDILSNPDYASLKAVQDQKVYGTPNAPFSWVDRPAGPNRLIGMRWFSALIYPEYIKCDINEEIHKFFDLFYHVDLSDEQLENVLKGTL
protein production: failed

MSGKTSITSRSDEFQRQIDHKEMPRDHQIERHTHIHTTRYRGGSLVEEVIEKLERFKVRTVNILVGGEDDEQKK
protein production: failed

MPLDRDWIAQRIPHAGAMCLLDRVLTWDAGRLRCVAVSHLSPGNPLRAGGRLSVVCGIEYAAQATAVHGALRSAGEGEAPRSGFLVSVRDVEFHVRRLDTLDGDLVVEVECLTGDGNDALYRFRLLAADGRELLTGRLAVRLDAEAGLEHHHHHH
protein production: not failed
